Laboratory results from PMC13397619.

B1: NLV3 TCR beta chain (CDR3β only) (parent)
chain: ASSPTGGSPSPLH
partner: NLCPMVATV

Variants of: B1
Experiment: T-Switch: Jurkat TCRβ−/− cells expressing a CDR3 saturation-mutagenesis library, stained with two peptide-HLA-A*02:01 tetramers (original and novel peptide) plus anti-CD3, FACS-sorted into four gates, gDNA sequenced
Settings: with HLA-A*02:01 with peptide … (NLV 2-1, the novel peptide), tetramers 1 µg/mL, 30 min on ice, SP, DP and SW gates expanded about 10 days between rounds ('two to three rounds of selection' in the Methods), gate SW: higher = more of the variant in the gate that binds the novel peptide and not the original one = switched binding. Fold enrichment of the CDR3 variant in one FACS gate of a two-tetramer stain, unresolved parent, parent is a CDR3 fragment, scale: fold enrichment, numbering: sequential-on-construct, sequence starts at 1

Variant	enrichment
[…] (CDR3 as printed); S3W derived by comparing it with the table's wild-type CDR3 ASSPTGGSPSPLH	0
[…] (CDR3 as printed); A1L derived by comparing it with the table's wild-type CDR3 ASSPTGGSPSPLH	0
[…] (CDR3 as printed); T5F derived by comparing it with the table's wild-type CDR3 ASSPTGGSPSPLH	0
[…] (CDR3 as printed); P11C derived by comparing it with the table's wild-type CDR3 ASSPTGGSPSPLH	0
[…] (CDR3 as printed); S2A derived by comparing it with the table's wild-type CDR3 ASSPTGGSPSPLH	0
[…] (CDR3 as printed); P11G derived by comparing it with the table's wild-type CDR3 ASSPTGGSPSPLH	0
[…] (CDR3 as printed); G6M derived by comparing it with the table's wild-type CDR3 ASSPTGGSPSPLH	0
[…] (CDR3 as printed); G6T derived by comparing it with the table's wild-type CDR3 ASSPTGGSPSPLH	0
[…] (CDR3 as printed); G7Q derived by comparing it with the table's wild-type CDR3 ASSPTGGSPSPLH	0
[…] (CDR3 as printed); G6R derived by comparing it with the table's wild-type CDR3 ASSPTGGSPSPLH	0
[…] (CDR3 as printed); S3R derived by comparing it with the table's wild-type CDR3 ASSPTGGSPSPLH	0
[…] (CDR3 as printed); A1F derived by comparing it with the table's wild-type CDR3 ASSPTGGSPSPLH	0
[…] (CDR3 as printed); A1Y derived by comparing it with the table's wild-type CDR3 ASSPTGGSPSPLH	0
[…] (CDR3 as printed); H13L derived by comparing it with the table's wild-type CDR3 ASSPTGGSPSPLH	0
[…] (CDR3 as printed); S2P derived by comparing it with the table's wild-type CDR3 ASSPTGGSPSPLH	0
[…] (CDR3 as printed); L12A derived by comparing it with the table's wild-type CDR3 ASSPTGGSPSPLH	0
[…] (CDR3 as printed); L12H derived by comparing it with the table's wild-type CDR3 ASSPTGGSPSPLH	0
[…] (CDR3 as printed); H13P derived by comparing it with the table's wild-type CDR3 ASSPTGGSPSPLH	0
[…] (CDR3 as printed); S10F derived by comparing it with the table's wild-type CDR3 ASSPTGGSPSPLH	0
[…] (CDR3 as printed); H13D derived by comparing it with the table's wild-type CDR3 ASSPTGGSPSPLH	0
[…] (CDR3 as printed); S2F derived by comparing it with the table's wild-type CDR3 ASSPTGGSPSPLH	0
[…] (CDR3 as printed); P11H derived by comparing it with the table's wild-type CDR3 ASSPTGGSPSPLH	0

Variant	enrichment
[…] (CDR3 as printed); P11I derived by comparing it with the table's wild-type CDR3 ASSPTGGSPSPLH	0
[…] (CDR3 as printed); G7S derived by comparing it with the table's wild-type CDR3 ASSPTGGSPSPLH	0
[…] (CDR3 as printed); P9V derived by comparing it with the table's wild-type CDR3 ASSPTGGSPSPLH	0
[…] (CDR3 as printed); P9K derived by comparing it with the table's wild-type CDR3 ASSPTGGSPSPLH	0
[…] (CDR3 as printed); L12D derived by comparing it with the table's wild-type CDR3 ASSPTGGSPSPLH	0
[…] (CDR3 as printed); S2N derived by comparing it with the table's wild-type CDR3 ASSPTGGSPSPLH	0
[…] (CDR3 as printed); A1Q derived by comparing it with the table's wild-type CDR3 ASSPTGGSPSPLH	0
[…] (CDR3 as printed); T5D derived by comparing it with the table's wild-type CDR3 ASSPTGGSPSPLH	0
[…] (CDR3 as printed); G7L derived by comparing it with the table's wild-type CDR3 ASSPTGGSPSPLH	0
[…] (CDR3 as printed); S8C derived by comparing it with the table's wild-type CDR3 ASSPTGGSPSPLH	0
[…] (CDR3 as printed); S10W derived by comparing it with the table's wild-type CDR3 ASSPTGGSPSPLH	0
[…] (CDR3 as printed); S10P derived by comparing it with the table's wild-type CDR3 ASSPTGGSPSPLH	0
[…] (CDR3 as printed); L12F derived by comparing it with the table's wild-type CDR3 ASSPTGGSPSPLH	0
[…] (CDR3 as printed); S3C derived by comparing it with the table's wild-type CDR3 ASSPTGGSPSPLH	0
[…] (CDR3 as printed); P9H derived by comparing it with the table's wild-type CDR3 ASSPTGGSPSPLH	0
[…] (CDR3 as printed); G7C derived by comparing it with the table's wild-type CDR3 ASSPTGGSPSPLH	0
[…] (CDR3 as printed); S2T derived by comparing it with the table's wild-type CDR3 ASSPTGGSPSPLH	0
[…] (CDR3 as printed); H13G derived by comparing it with the table's wild-type CDR3 ASSPTGGSPSPLH	0
[…] (CDR3 as printed); S10M derived by comparing it with the table's wild-type CDR3 ASSPTGGSPSPLH	0
[…] (CDR3 as printed); S10C derived by comparing it with the table's wild-type CDR3 ASSPTGGSPSPLH	0
[…] (CDR3 as printed); P9Q derived by comparing it with the table's wild-type CDR3 ASSPTGGSPSPLH	0
